What all share (experiment): purified protein
In data set [1] the test system is CC(C)(COP(=O)(O)OP(=O)(O)OC[C@H]1O[C@@H](n2cnc3c(N)ncnc32)[C@H](O)[C@@H]1OP(=O)(O)O)[C@@H](O)C(=O)NCCC(=O)NCCS. The settings on record: citrate cleavage direction, 55°C.
The test system of data set [2] is CCC(=O)SCCNC(=O)CCNC(=O)[C@H](O)C(C)(C)COP(=O)(O)OP(=O)(O)OC[C@H]1O[C@@H](n2cnc3c(N)ncnc32)[C@H](O)[C@@H]1OP(=O)(O)O. The note with it: co-substrate oxaloacetate, 100 mM Tris-HCl pH 7.8, 55°C.
Data set [3] concerns CC(=O)SCCNC(=O)CCNC(=O)[C@H](O)C(C)(C)COP(=O)(O)OP(=O)(O)OC[C@H]1O[C@@H](n2cnc3c(N)ncnc32)[C@H](O)[C@@H]1OP(=O)(O)O. The settings on record: co-substrate oxaloacetate, 100 mM Tris-HCl pH 7.8, 55°C.
The subject of the next data set is O=C(O)CC(=O)C(=O)O. The note with it: co-substrate acetyl-CoA, 100 mM Tris-HCl pH 7.8, 55°C.

What is called Km is the substrate concentration at which the rate is half of its maximum. As a reminder, the Vmax is the rate approached at saturating substrate. In general, kcat/Km refers to the second-order rate constant that governs catalysis at low substrate concentration. On to “Si-citrate/2-methylcitrate synthase (AHF97591) (Desulfurella acetivorans A63)”, for which the Km worked out at 41 ± 11 µM in data set [1], 22 ± 3.5 µM in data set [2], 14 ± 1.8 µM in data set [3] and 30 ± 4.4 µM in the data set with O=C(O)CC(=O)C(=O)O. Moreover, the Vmax worked out at 0.1 µmol/min/mg in data set [1], 7.4 µmol/min/mg in data set [2], 26 µmol/min/mg in data set [3] and 21 µmol/min/mg in the data set on O=C(O)CC(=O)C(=O)O. Moreover, the specificity constant (kcat/Km) in data set [1] worked out at 2000 M⁻¹ s⁻¹; in data set [2], 300 M⁻¹ s⁻¹; in data set [3] it was 1500 M⁻¹ s⁻¹; in the data set with O=C(O)CC(=O)C(=O)O, 600 M⁻¹ s⁻¹.
